Data as given in patent US6638518B1 (priority 1999, dated 2003).
Where two headings read alike, the source gives them in different places.

B1: FAP-A: Fibronectin attachment protein produced by M. avium (SEQ ID NO:5, GenBank AAB50543), recombinant fusion protein (protein, listed as Mycobacterium avium)
chain: MDQVEATSTRRKGLWTTLAITTVSGASAVVIALPETSHADPEVPTPVPPSTATTPHPRRRRIPGQPADNAQAGAPAPAPNGQQRPPRRRRMIPTRAPPPAGAPPNGAPPAAPNGAPPPPVDPNAPPPPPADPNAGRIPNSYVLPAGWVESDASHLDYGSALLSKVTGPPPMPDQPPPVANDTRIVMGRVDQKLYASAEANNAKAAVGLGSDMGEFFMPYPGTRINQDSTPLNGANGSTGSASYYEVKFSDASKPNGQIWTGVIGSANAGNRQRWFVVWLGTSNDPVDKVAAKALAESIQAWTPPPAPPAAPGGPGAPAPGAPGAPAPGAPAAPGVTAPAAPAPAAPGAPAAPGAPAPEPGQAPAVEVSPTPTPTPQQTLSA
modifications: recombinant fusion partner

Legend:
human fibronectin = target: T1, human fibronectin (Homo sapiens, UniProt P02751); test: Attachment of FAP to fibronectin (biotinylated fusion proteins on coated wells); type: binding
T1 construct: purchased Collaborative Biomedical Products, Bedford, Mass
Description: Ninety-six-well Immulon II plates (Dynatech, Chantilly, Va.) were coated with 1 μg of human fibronectin (Collaborative Biomedical Products, Bedford, Mass.) or bovine serum albumin (BSA) at 37° C. overnight. Recombinant FAP-B, FAP-A, and β-galactosidase fusion proteins were produced in the pTrcHis vector and purified as described for FAP-B, were biotinylated with NHS-LC-Biotin (Pierce, Rockford, Ill.). Biotinylated FAP-B, FAP-A and β-galactasidase fusion proteins (0.5 μg and 2 μg) were added to wells coated with fibronectin or BSA and incubated at 25° C. for 1 hour. The bound fusion proteins were detected with streptavidin-HRP (1:10,000 dilution; Pierce) and o-phenylenediamine dihydrochloride (Sigma) substrate.

[1] = tested on: BCG attachment to fibronectin; type: binding, M. bovis BCG; details: recombinant FAP 1 μM or peptide, 90 minutes, 37° C.; FIG. 4

T1 sequence (P02751 32-2477): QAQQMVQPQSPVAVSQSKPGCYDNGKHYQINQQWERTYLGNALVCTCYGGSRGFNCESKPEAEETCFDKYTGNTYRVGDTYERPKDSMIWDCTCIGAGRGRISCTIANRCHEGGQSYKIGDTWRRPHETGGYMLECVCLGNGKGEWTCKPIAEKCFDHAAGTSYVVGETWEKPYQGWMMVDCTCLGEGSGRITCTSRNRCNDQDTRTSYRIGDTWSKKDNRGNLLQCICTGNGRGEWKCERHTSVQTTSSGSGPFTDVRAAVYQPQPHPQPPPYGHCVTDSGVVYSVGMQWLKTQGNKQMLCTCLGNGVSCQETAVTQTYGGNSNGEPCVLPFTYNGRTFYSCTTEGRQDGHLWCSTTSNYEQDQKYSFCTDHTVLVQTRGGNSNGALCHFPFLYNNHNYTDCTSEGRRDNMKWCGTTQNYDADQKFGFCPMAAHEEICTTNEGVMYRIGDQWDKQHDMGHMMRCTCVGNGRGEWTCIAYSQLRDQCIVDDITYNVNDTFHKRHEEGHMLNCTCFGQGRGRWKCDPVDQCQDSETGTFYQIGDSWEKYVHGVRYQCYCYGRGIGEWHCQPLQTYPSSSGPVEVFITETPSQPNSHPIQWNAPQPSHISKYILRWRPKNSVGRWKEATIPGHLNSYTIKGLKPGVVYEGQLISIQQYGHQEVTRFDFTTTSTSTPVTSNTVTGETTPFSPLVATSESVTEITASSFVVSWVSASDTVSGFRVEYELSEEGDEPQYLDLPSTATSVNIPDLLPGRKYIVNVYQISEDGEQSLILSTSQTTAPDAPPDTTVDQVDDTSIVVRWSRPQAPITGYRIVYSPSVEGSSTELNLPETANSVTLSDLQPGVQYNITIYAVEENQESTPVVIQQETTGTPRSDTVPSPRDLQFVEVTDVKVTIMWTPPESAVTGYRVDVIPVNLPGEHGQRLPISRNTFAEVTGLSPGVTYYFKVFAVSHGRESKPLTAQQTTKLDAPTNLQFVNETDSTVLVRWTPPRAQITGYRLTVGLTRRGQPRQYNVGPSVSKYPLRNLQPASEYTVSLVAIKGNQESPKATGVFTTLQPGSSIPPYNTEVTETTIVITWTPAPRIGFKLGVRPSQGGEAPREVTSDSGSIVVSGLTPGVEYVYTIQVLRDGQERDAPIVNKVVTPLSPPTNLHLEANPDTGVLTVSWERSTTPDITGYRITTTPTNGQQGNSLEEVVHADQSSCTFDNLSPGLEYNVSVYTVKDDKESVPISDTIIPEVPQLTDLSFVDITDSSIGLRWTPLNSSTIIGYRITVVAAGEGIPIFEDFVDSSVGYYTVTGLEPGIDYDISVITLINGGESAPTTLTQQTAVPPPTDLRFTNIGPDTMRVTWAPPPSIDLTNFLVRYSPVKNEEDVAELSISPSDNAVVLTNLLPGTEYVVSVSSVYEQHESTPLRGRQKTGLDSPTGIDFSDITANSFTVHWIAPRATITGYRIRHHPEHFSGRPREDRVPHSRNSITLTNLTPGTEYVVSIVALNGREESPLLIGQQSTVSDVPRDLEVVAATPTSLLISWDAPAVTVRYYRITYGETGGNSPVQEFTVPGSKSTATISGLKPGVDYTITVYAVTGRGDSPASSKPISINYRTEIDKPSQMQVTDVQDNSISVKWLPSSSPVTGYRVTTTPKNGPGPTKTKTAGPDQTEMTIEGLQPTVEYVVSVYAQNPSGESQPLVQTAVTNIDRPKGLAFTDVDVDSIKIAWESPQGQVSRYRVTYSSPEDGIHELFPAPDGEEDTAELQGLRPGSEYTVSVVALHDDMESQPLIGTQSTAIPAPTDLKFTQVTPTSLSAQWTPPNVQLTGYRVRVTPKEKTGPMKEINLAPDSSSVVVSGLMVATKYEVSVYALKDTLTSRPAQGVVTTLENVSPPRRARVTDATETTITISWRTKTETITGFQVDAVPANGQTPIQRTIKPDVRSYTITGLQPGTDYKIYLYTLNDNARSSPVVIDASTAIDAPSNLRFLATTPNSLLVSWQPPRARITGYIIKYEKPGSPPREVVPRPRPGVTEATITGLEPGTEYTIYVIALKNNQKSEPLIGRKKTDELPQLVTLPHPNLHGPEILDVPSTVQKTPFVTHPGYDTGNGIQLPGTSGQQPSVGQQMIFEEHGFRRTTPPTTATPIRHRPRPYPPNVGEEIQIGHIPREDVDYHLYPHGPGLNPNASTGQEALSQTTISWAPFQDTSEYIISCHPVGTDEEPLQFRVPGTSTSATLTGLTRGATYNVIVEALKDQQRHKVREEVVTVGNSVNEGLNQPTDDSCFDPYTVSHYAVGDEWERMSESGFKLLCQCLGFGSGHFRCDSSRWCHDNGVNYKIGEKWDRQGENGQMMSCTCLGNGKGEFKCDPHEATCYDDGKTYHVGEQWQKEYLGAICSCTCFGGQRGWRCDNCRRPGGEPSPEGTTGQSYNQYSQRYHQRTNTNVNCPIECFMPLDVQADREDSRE

Molecule	binding to fibronectin-coated wells (human fibronectin)	inhibition of BCG attachment to fibronectin [1]	binding to fibronectin-coated wells (human fibronectin; biotinylated fusion proteins 0.5 μg and 2 μg, 25° C., 1 hour, FIG. 2)
β-galactosidase: Control recombinant β-galactosidase fusion protein produced in the pTrcHis vector	did not bind to fibronectin		
FAP-A269-292: Synthesized peptide of amino acids 269-292 of FAP-A, a conserved fibronectin binding region (GNRQRWFVVWLGTSNDPVDKVAAK)		inhibit BCG attachment to fibronectin in an equivalent manner	
B1		inhibit BCG attachment to fibronectin in an equivalent manner	bound to wells coated with fibronectin
